The source of these data is patent US8586357B2, “Markers of definitive endoderm” (ViaCyte, Inc., priority 2003, dated 2013).

One assay deals with hESCs (hESCyt-25). The assay is described as follows: Q-PCR gene expression assay of marker genes in differentiating hESCs. Type of assay: cell-based, human. The conditions noted are these: for suppression of AFP gene expression: in comparison to no treatment (10% FBS alone), FIG. 8A. The procedure: In the following experiments, real-time quantitative RT-PCR (Q-PCR) was the primary assay used for screening the effects of various treatments on HESC differentiation. In particular, real-time measurements of gene expression were analyzed for multiple marker genes at multiple time points by Q-PCR. Marker genes characteristic of the desired as well as undesired cell types were evaluated to gain a better understanding of the overall dynamics of the cellular populations. The strength of Q-PCR analysis includes its extreme sensitivity and relative ease of developing the necessary markers, as the genome sequence is readily available. Furthermore, the extremely high sensitivity of Q-PCR permits detection of gene expression from a relatively small number of cells within a much larger population. In addition, the ability to detect very low levels of gene expression provides indications for “differentiation bias” within the population. The bias towards a particular differentiation pathway, prior to the overt differentiation of those cellular phenotypes, is unrecognizable using immunocytochemical techniques. […] Additionally, Q-PCR provides a mechanism by which to evaluate the success of a differentiation protocol in a quantitative format at semi-high throughput scales of analysis.
The approach taken here was to perform relative quantitation using SYBR Green chemistry on a Rotor Gene 3000 instrument (Corbett Research) and a two-step RT-PCR format. Such an approach allowed for the banking of cDNA samples for analysis of additional marker genes in the future, thus avoiding variability in the reverse transcription efficiency between samples.
Primers were designed to lie over exon-exon boundaries or span introns of at least 800 bp when possible, as this has been empirically determined to eliminate amplification from contaminating genomic DNA.
We routinely used Q-PCR to measure the gene expression of multiple markers of target and non-target cell types in order to provide a broad profile description of gene expression in cell samples. The markers relevant for the early phases of hESC differentiation (specifically ectoderm, mesoderm, definitive endoderm and extra-embryonic endoderm) and for which validated primer sets are available are provided below in Table 1. […] This is an important fact since the hESCs were often grown on mouse feeder layers. Most typically, triplicate samples were taken for each condition and independently analyzed in duplicate to assess the biological variability associated with each quantitative determination.
To generate PCR template, total RNA was isolated using RNeasy (Qiagen) and quantitated using RiboGreen (Molecular Probes). Reverse transcription from 350-500 ng of total RNA was carried out using the iScript reverse transcriptase kit (BioRad), which contains a mix of oligo-dT and random primers. Each 20 μL reaction was subsequently diluted up to 100 μL total volume and 3 μL was used in each 10 μL Q-PCR reaction containing 400 nM forward and reverse primers and 5 μL 2×SYBR Green master mix (Qiagen). Two step cycling parameters were used employing a 5 second denature at 85-94° C. (specifically selected according to the melting temp of the amplicon for each primer set) followed by a 45 second anneal/extend at 60° C. Fluorescence data was collected during the last 15 seconds of each extension phase. A three point, 10-fold dilution series was used to generate the standard curve for each run and cycle thresholds (Ct's) were converted to quantitative values based on this standard curve. The quantitated values for each sample were normalized to housekeeping gene performance and then average and standard deviations were calculated for triplicate samples. At the conclusion of PCR cycling, a melt curve analysis was performed to ascertain the specificity of the reaction. A single specific product was indicated by a single peak at the Tm appropriate for that PCR amplicon. […]

The next assay relates to hESCs. Kind of assay: Validation of definitive endoderm markers by Q-PCR (Example 12). The conditions noted are these: 100 ng/ml activin A vs no exogenous activin A; Example 12 written in present tense. Type of assay: cell-based, human. The protocol: Using the methods, such as those described in the above Examples, hESCs are differentiated to produce definitive endoderm. In particular, to increase the yield and purity of definitive endoderm in differentiating cell cultures, the serum concentration of the medium is controlled as follows: 0% FBS on day 1, 0.2% FBS on day 2 and 2.0% FBS on days 3-6. Differentiating cell populations are grown in the presence of 100 ng/ml activin A, whereas non-differentiating control populations are grown in the absence of activin A. Human embryonic cell cultures grown in the presence or absence of activin A and in either 2% serum or 10% serum over the entire 6 day differentiation period are also monitored. Daily samples of each culture are withdrawn and the amount of mRNA transcript produced for each of the markers AGPAT3, APOA2, C20orf56, C21orf129, CALCR, CCL2, CER1, CMKOR1, CRIP1, CXCR4, CXorf1, DIO3, DIO3OS, EB-1, EHHADH, ELOVL2, EPSTI1, FGF17, FLJ10970, FLJ21195, FLJ22471, FLJ23514, FOXA2, FOXQ1, GATA4, GPR37, GSC, LOC283537, MYL7, NPPB, NTN4, PRSS2, RTN4RL1, SEMA3E, SIAT8D, SLC5A9, SLC40A1, SOX17, SPOCK3, TMOD1, TRPA1, TTN, AW166727, AI821586, BF941609, AI916532, BC034407, N63706 and AW772192 is measured by Q-PCR.

B1: Activin A: growth factor of the TGFβ superfamily, Nodal/Activin subgroup; definitive endoderm inducer (protein, UniProt P08476 311-426, looked up)
Inhibin beta A chain: GLECDGKVNICCKKQFFVSFKDIGWNDWIIAPSGYHANYCEGECPSHIAGTSGSSLSFHSTVINHYRMRGHSPFANLKSCCVPTKLRPMSMLYYDDGQNIIKKDIQNMIVEECGCS
Consider B1, for which the “SOX17 gene expression, dose response” value with hESCs (hESCyt-25) (0, 10, 30 or 100 ng/ml, 3 days adherent then 1, 3 and 5 days suspension culture, FIG. 11) is given as “dose-dependently increases”. In addition, the “relative levels of CXCR4 gene expression with increasing dose” value in the assay on hESCs (hESCyt-25) (0, 10 or 100 ng/mL, 7 days, FIG. 32) is “dramatically increased”. Besides, the CXCR4 expression entry with hESCs (hESCyt-25) (100 ng/mL activin A (A100) vs no exogenous activin A (NF), 6 days, FIG. 26) is “high”. In addition, the CXCR4 level result in the assay on hESCs (hESCyt-25) (100 ng/mL activin A, 10% FBS condition, 6 days, FIG. 26) is “remarkable decrease”. Moreover, the “mesoderm differentiation (expression of brachyury)” value in the assay on hESCs (hESCyt-25) (100 ng/ml, FIG. 14B) is on record as “notable suppression”. Besides, in the assay with hESCs (hESCyt-25) (4-day time point, 10% serum), the “SOX17 induction compared to no factor medium controls” value is listed as 5 fold. Also, the “expression of brachyury relative to untreated control cultures” value with hESCs (hESCyt-25) (10 and 30 ng/ml, later time points, FIG. 14B) was “maintain the expression of brachyury at later time points”. For the same molecule, the “SOX17 gene expression relative to the undifferentiated control media (SR20)” value with hESCs (hESCyt-25) (FIG. 7A) is on record as “increases”. The “difference in the level of SOX17 mRNA expression, Activin A vs retinoic acid treated hESCs” value with hESCs (hESCyt-25) (FIG. 7A) turned out to be 10 fold. In addition, the “expression of the visceral endoderm marker AFP, dose response” value in the assay with hESCs (hESCyt-25) (FIG. 13A) was “dose-dependent decrease”. Besides, the “expression of the neural marker ZIC1” value in the assay with hESCs (hESCyt-25) (FIG. 14A) is reported as “not a dose-dependent effect”. For the same molecule, the “expression of MIXL1, GATA4 and HNF3b, dose response” value in the assay with hESCs (hESCyt-25) (FIGS. 12A-C) is on record as “dose-dependent increases”. The “expression of SOX7 (primitive endoderm) and SPARC (parietal endoderm)” value with hESCs (hESCyt-25) (FIGS. 13B-C) was “remain either unchanged or exhibit suppression at some time points”. Also, the “induction of SOX17 gene expression vs. undifferentiated hESCs” value in the assay with hESCs (hESCyt-25) (day 4 of differentiation, Activin A at 100 ng/ml, medium with 10% serum, FIG. 19) was determined as 19 fold. For the same molecule, the “SOX17 gene expression and cell number” value with hESCs (hESCyt-25) (doses of 100 ng/mL or more) is given as “potently inducing”. Also, the results for the “suppression of AFP gene expression” value in the assay with hESCs (hESCyt-25) and in the assay on hESCs (hESCyt-25) (listed as activin A) were 6.8 fold and “approximately 7 fold”, respectively. The “expression levels of the Table 4 markers (AGPAT3 ... AW772192)” value in the assay with hESCs is “high”.
